Data on one molecule can be found in publication PMC10365314, “Noncanonical contribution of microglial transcription factor NR4A1 to post-stroke recovery through TNF mRNA destabilization”.

The data set concerns the target His-GST-NR4A1 (Mus musculus, UniProt P12813 1-601). The experiment in a line: EMSA; glutaraldehyde 0.2% added after binding; 10 mM HEPES pH 7.6, 50 mM KCl, 1 mM EDTA, 0.05% Triton X-100, 5% glycerol, 1 mM DTT, 40 U/ml RNasin; REMSA: 2 nM probe, room temperature 30 min; pull-down: 50 pmol probe, 250 ug extract, 4 C 3 h. To be noted: protein: recombinant; tags: His-GST; label: 5' biotin; single strand.

Sequence of His-GST-NR4A1 (P12813 whole entry): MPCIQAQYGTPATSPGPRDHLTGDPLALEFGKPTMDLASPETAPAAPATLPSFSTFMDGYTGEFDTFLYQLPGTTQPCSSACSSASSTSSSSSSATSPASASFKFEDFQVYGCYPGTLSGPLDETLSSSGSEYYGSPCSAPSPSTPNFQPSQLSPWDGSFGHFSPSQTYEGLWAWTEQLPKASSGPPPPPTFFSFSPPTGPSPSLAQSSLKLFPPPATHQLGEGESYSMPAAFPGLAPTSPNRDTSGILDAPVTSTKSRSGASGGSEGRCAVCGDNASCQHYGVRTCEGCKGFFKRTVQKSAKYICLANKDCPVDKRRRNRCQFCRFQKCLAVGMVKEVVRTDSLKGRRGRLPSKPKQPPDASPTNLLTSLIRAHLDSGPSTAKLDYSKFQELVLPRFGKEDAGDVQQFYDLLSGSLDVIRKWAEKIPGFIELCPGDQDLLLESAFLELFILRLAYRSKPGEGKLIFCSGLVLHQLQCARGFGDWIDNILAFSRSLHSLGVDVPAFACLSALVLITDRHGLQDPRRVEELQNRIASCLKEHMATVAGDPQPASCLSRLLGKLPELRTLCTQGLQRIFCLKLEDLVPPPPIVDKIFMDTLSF

In the case of CGUCUCGGACUCGGACUGCU (ssRNA, m6A at positions 9 and 15 (as printed: CGUCUCGG(m6A)CUCGG(m6A)CUGCU)) [GGACU probe, m6A], the binding result is on record as “binds”.
